Measured values taken from the supplement of paper PMC9732359.
± gives the uncertainty stated by the source.

Assay: protein stability index of a GFP-peptide fusion (yeast GPS) (PSI 1-4); higher = more stable; sorted into four equal gates, so the index is relative within each strain
How it was run: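 Mid-log yeast cultures in leucine-free medium, carrying a pooled plasmid library, were sorted into four equal gates by their GFP/Cherry fluorescence ratio. Each plasmid expressed Cherry along with GFP fused upstream of a tiled 17-residue yeast protein peptide. Plasmids recovered from each gate were PCR-amplified and Illumina-sequenced, with reads assigned to strains by barcodes. The protein stability index was obtained by summing each gate's read frequency weighted by its gate number.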

Sequence | protein stability index (doa10∆) | protein stability index (pdr5∆) | protein stability index (san1∆) | protein stability index (ubr1∆)
QNSSKIVNVLSKCLNLI [SWI3] | 2.21 ± 0.057 | 1.98 ± 0.048 | 1.96 ± 0.093 | 1.31 ± 0.044
QNSYADKVTSQAVNNLI [RPP1] | 1.82 ± 0.047 | 1.93 ± 0.09 | 1.68 ± 0.099 | 2.11 ± 0.068
QNVNVPSAFNFTGNNST [YOR098C/NUP1] | 2.56 ± 0.049 | 2.89 ± 0.06 | 2.77 ± 0.037 | 2.84 ± 0.053
QPLFSTVPEYLKTADNR [PGD1] | 2.79 ± 0.088 | 2.6 ± 0.099 | 2.87 ± 0.075 | 2.96 ± 0.057
QPQQSTIGGGLFGNKPT [YGR119C/NUP57] | 2.75 ± 0.087 | 2.73 ± 0.15 | 3.55 ± 0.15 | 1.38 ± 0.19
QPSYNSAIIENAFRKEE [GAL11] | 2.86 ± 0.086 | 2.68 ± 0.091 | 2.74 ± 0.077 | 2.76 ± 0.055
QPVNPKPFLKGLVNHRV [SMX3] | 3.07 ± 0.054 | 3.09 ± 0.057 | 3.16 ± 0.041 | 3.06 ± 0.055
QQAQAQAQAQAQAQAQA [GAL11] | 2.78 ± 0.097 | 3.06 ± 0.17 | 2.92 ± 0.081 | 3.12 ± 0.12
QQDQPEQSEQPEQHQDK [RPN10] | 3.04 ± 0.059 | 3.14 ± 0.054 | 2.83 ± 0.048 | 3.13 ± 0.058
QQKANLLSSSNFEATKK [COR1] | 2.27 ± 0.069 | 2.5 ± 0.075 | 2.1 ± 0.086 | 1.91 ± 0.05
QQNIKFRRDFLLREYDI [YJL039C/NUP192] | 2.5 ± 0.058 | 2.57 ± 0.055 | 2.9 ± 0.045 | 2.63 ± 0.037
QQPQTNTAPGLGNTVST [YGR119C/NUP57] | 3.03 ± 0.097 | 3.34 ± 0.1 | 3.04 ± 0.073 | 3.06 ± 0.058
QQQIESNEEQRNLDSAT [SMC3] |  |  | 3.43 ± 0.091 | 
QQQIIKIRITLTSTKVK [RPS20] | 1.91 ± 0.056 | 1.84 ± 0.048 | 1.59 ± 0.1 | 2.71 ± 0.043
QQQQDLQQQQQVVTTVA [SNF6] | 1.55 ± 0.097 | 1.87 ± 0.083 | 1.87 ± 0.23 | 1.54 ± 0.092
QQQQQQQQQQQHIYPSS [GAL11] | 2.691 ± 0.02 | 2.78 ± 0.02 | 2.693 ± 0.017 | 2.811 ± 0.018
QQSTDADEDDEDAKYVI [RPT1] |  | 3.56 ± 0.27 |  | 3.8 ± 0.14
QQVEGKLSQMILDKIFY [RPN6] | 2.81 ± 0.074 | 2.84 ± 0.081 | 3.01 ± 0.096 | 2.94 ± 0.062
QREAAAEYAQLLAKRLS [RPS6A] | 1.78 ± 0.059 | 1.6 ± 0.055 | 1.7 ± 0.11 | 2.11 ± 0.046
QREFKEIMEERNVEQKL [NNF1] |  |  | 2.79 ± 0.24 | 

Sequence | protein stability index (doa10∆) | protein stability index (pdr5∆) | protein stability index (san1∆) | protein stability index (ubr1∆)
QRKKQSDVLRFLQRVRV [RPL15A] | 1.38 ± 0.16 | 2.26 ± 0.21 | 1.78 ± 0.26 | 1.56 ± 0.099
QRLIFAGKQLEDGRTLS [RPS31] | 2.8 ± 0.12 | 2.97 ± 0.078 | 3.38 ± 0.067 | 2.27 ± 0.12
QSLGLDDLQKFNGIENQ [ISW2] | 2.77 ± 0.1 | 2.73 ± 0.082 | 2.44 ± 0.07 | 2.69 ± 0.043
QSQLNVTLSQLVSVTST [MED8] | 1.39 ± 0.025 | 1.79 ± 0.026 | 1.44 ± 0.049 | 1.3 ± 0.019
QSSESFDDSDITKFALF [YML103C/NUP188] | 2.44 ± 0.1 | 2.23 ± 0.071 | 2.48 ± 0.083 | 2.46 ± 0.075
QSSLDVAGLEDKFRKAC [SIR3] | 3.62 ± 0.14 | 3.18 ± 0.16 | 3.42 ± 0.13 | 3.06 ± 0.21
QSSLSKVDIPLEVVQYI [NUT2] | 2.69 ± 0.081 | 2.16 ± 0.086 | 2.24 ± 0.083 | 2.29 ± 0.071
QTAVTCESCSTILCTPT [RPS27A] | 1.93 ± 0.04 | 2.05 ± 0.044 | 1.91 ± 0.056 | 1.82 ± 0.04
QTKEIKTERVEDQKVVD [RPL6B] | 3.55 ± 0.088 | 3.33 ± 0.11 | 3.48 ± 0.068 | 3.53 ± 0.076
QTKENKRCVGVILGDAN [RPN8] | 2.89 ± 0.053 | 2.9 ± 0.05 | 2.74 ± 0.055 | 2.73 ± 0.04
QTPAEKHAFMGTLKKDL [RPL3] | 3.08 ± 0.17 | 3.21 ± 0.062 | 2.96 ± 0.11 | 2.96 ± 0.093
QTWSYLSLYSTDLENSS [ECM29] | 2.41 ± 0.064 | 2.25 ± 0.052 | 2.66 ± 0.05 | 2.76 ± 0.049
QVIVDIFSVHGNTVVDG [YCG1] | 2.08 ± 0.11 | 2.12 ± 0.068 | 1.4 ± 0.2 | 2.34 ± 0.035
QVLVTTNQDGLKFVKVR [RPB2] | 1.41 ± 0.075 | 1.78 ± 0.1 | 1.69 ± 0.14 | 1.33 ± 0.11
QVRNQVFMLDTKRLGTP [RGR1] | 2.77 ± 0.099 | 2.46 ± 0.11 | 2.75 ± 0.084 | 2.89 ± 0.17
QVSEVDPGRYNKVCRIE [RPB8] | 3.07 ± 0.13 | 3.04 ± 0.081 | 2.65 ± 0.084 | 2.93 ± 0.06
QWIKFLLHTLYLRPASA [SSN8] | 1.81 ± 0.051 | 1.59 ± 0.042 | 1.4 ± 0.073 | 1.72 ± 0.035
QWSIEIVLLDDEGKEIP [TAF14] | 1.99 ± 0.06 | 2.1 ± 0.06 | 2.71 ± 0.066 | 2.75 ± 0.068
QYEHLIKGIREYEEWQK [YDL116W/NUP84] | 3.11 ± 0.1 | 2.99 ± 0.079 | 2.88 ± 0.13 | 2.62 ± 0.083
QYTQRLSKLEKALDRHE [SRP68] | 2.52 ± 0.046 | 2.65 ± 0.035 | 2.72 ± 0.039 | 2.66 ± 0.037
